According to publication doi:10.1101/2020.06.24.168591:

Biological target: E108D mutant of Thermoplasmatales archaeon SG8-52-1 heliorhodopsin (TaHeR) (Thermoplasmatales archaeon SG8-52-1)
Experiment: crystal structure

Substance: E108D mutant of Thermoplasmatales archaeon SG8-52-1 heliorhodopsin (TaHeR) (natural protein)
- stoichiometry N: 2
